Results from patent US20060153883A1 (Chugai, published 2006).

Target: T1, HA tag-carrying soluble HM1.24 antigen sHM164 (HM1.24 antigen extracellular region in which the C terminal … (human, UniProt Q10589 49-163, limits assumed))
T1 construct: also called HA-sHM164
T1 sequence: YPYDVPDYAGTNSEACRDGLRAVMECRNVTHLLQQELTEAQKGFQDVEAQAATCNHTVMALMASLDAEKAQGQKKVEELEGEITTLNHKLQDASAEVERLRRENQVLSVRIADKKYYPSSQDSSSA
Experiment: sandwich ELISA: anti-HA antibody coated, CHO culture supernatant, humanized anti-HM1.24 antibody as detector, AP-labeled anti-human IgG
Procedure: The soluble human HM1.24 ELISA described below was conducted as follows. In order to select a highly productive strain, the amount of the soluble protein produced was compared by a sandwich ELISA using anti-HA antibody (Boehringer Mannheim) and a humanized anti-HM1.24 antibody (K. Ono et al., The 20th Japan Molecular Biology Annual Meeting, General Lecture 3-501-P-478), whereby selecting the strain. Since the antigen concentration was not known because a purified antigen was not obtained, the number of the cells upon the ELISA was taken into account when comparing the concentration.
An anti-HA antibody (Boehringer Mannheim) was adjusted at 1 μg/ml in a Coating Buffer (C.B.: 0.1 mol/L sodium bicarbonate buffer, pH 9.6, 0.2% sodium azide) was added to a plane bottom 96-well plate (Nunc) in the volume of 100 μl/well, and coated overnight at 4° C.

- binding result: binds
B1: reconstructed human anti-HM1.24 antibody (humanized anti-HM1.24 antibody), light chain version a and heavy chain version s described in WO98/14580 (antibody, V domains shown)
VH: QVQLVQSGAEVKKPGASVKVSCKASGYTFTPYWMQWVRQAPGQGLEWMGSIFPGDGDTRYSQKFKGRVTITADKSTSTAYMELSSLRSEDTAVYYCARGLRRGGYYFDYWGQGTTVTVSS
VL: DIQMTQSPSSLSASVGDRVTITCKASQDVNTAVAWYQQKPGKAPKLLIYSASNRYTGVPSRFSGSGSGTDFTFTISSLQPEDIATYYCQQHYSTPFTFGQGTKVEIK
notes: Plasmid names point to a human gamma 1 heavy and a kappa light constant region; It was detected with an anti-human IgG antibody in the ELISA
